Data from patent US8535662B2, “Apyrase therapy for bleeding conditions” (Apt Therapeutics, Inc., priority 2010, dated 2013).

Key:
[1] = test system: rats, embolic stroke (thrombus injection into internal carotid artery); assay: Embolic stroke model in rats, apyrase agent with or without r-tPA (Example 1); assay type: in vivo, rat; details: brains at 3 days
Method: The following groups were included in this study:
(1) control (saline treated), n=11;
(2) apyrase agent at 0.75 mg/kg, n=4;
(3) apyrase agent at 2.25 mg/kg, n=4;
(4) r-tPA (at 10 mg/kg), n=4;
(5) apyrase agent at 0.75 mg/kg plus r-tPA (10 mg/kg) and
(6) apyrase agent at 2.25 mg/kg plus r-tPA (10 mg/kg) (n=10).
All the treatments were initiated at 2 h following thrombus injection into internal carotid artery. Infarct volume and behavioral deficit were determined at day 3 after the stroke.

[2] = test system: rats, MCAO suture model with hyperglycemia; assay: Hyperglycemic hemorrhagic transformation in rat focal ischemia (MCAO suture model) (Example 3); assay type: in vivo
Method: Focal ischemia was produced using the MCAO (Middle Cerebral Artery Occlusion) suture model in rats. Removal of the suture at 3.5 h after MCAO signaled the beginning of the reperfusion period. Ischemia-reperfusion causes blood extravasation into infracted brain tissues, showing multiple dots, small petechiae and more confluent petechial hemorrhage.
The animals were divided into three groups: […]
Rats were sacrificed at 8 h after MCAO and brains were frozen and cut into 20 μm frozen sections with intervals at 1 mm. The sections were stained with hematoxylin-eosin (HE) or cresyl violet. The H-E staining was used for measurements of hemorrhage rate and hemorrhage volume. The cresyl violet staining was used for quantifying infarct volume and brain swelling. An MCID™ digital image analysis system (Imaging Research, Inc, St. Catherines, Ontario, Canada) was used for quantifying hemorrhage and infarct volume.

[3] = Pharmacokinetic study in rabbits, single IV bolus (serum ADPase and ATPase activities); assay type: in vivo, rabbit
Method: Pharmacokinetic studies of apyrase agent (sol CD39L3 R67G T69R) were conducted in rabbits where a single bolus was injected intravenously. At various time points (10 min to 24 h after injection), rabbits were bled by cardiac puncture and serum was prepared. Serum samples were examined for both ADPase and ATPase activities.

[4] = test system: ADP-induced platelet aggregation; assay: Ex vivo ADP-induced platelet aggregation in platelet-rich plasma after dosing rabbits; set-up: species or system rabbit
Description: Blood samples taken at various time points were heparinized.
Data are presented as relative light transmission versus time.

[5] = test system: ADP-induced platelet aggregation; assay: Ex vivo ADP-induced platelet aggregation in platelet-rich plasma in pigs (Example 5); set-up: species or system pig
[6] = test system: pigs, coronary injury with stenting; assay: Coronary injury (balloon overstretch) and bare metal stent in pigs: platelet accumulation and luminal stenosis (Example 6); assay type: in vivo, pig; details: 30 days after stenting, six measurements in two pigs
Method: Coronary injury with or without stenting in pigs is regarded as the best preclinical model for simulation of human angioplasty (Touchard, A. G., et al., Thromb. Res. (2007) 120:477-484). One coronary artery was injured by balloon overstretch in each pig and the site of injury including some overlap with the non-injured vessel was covered with a single bare metal stent (BMS).
Accumulation of ^111In-labeled autologous platelets on the stents over the first 24 h was measured in 4/6 pigs in each group. Radiolabeled platelets were injected 15 min before the coronary catheterization and the hearts perfusion-fixed after 24 h to obtain the stented vessel segment for counting radiolabeled platelets.

[7] = test system: dogs, coronary thrombotic occlusion; assay: Canine coronary thrombosis and fibrinolysis model, adjunctive treatment with rtPA (Example 7); assay type: in vivo, dog; details: for decrease of infarct area compared to clopidogrel treatment: percent of left ventricular area or of area-at-risk, 24 hours of reperfusion
Method: Thrombotic occlusion was induced by electrical injury to a coronary artery in dogs. […] Buccal mucosa bleeding times, PT, and aPTT were measured as indices of bleeding risk. After 24 hours of reperfusion, infarct size was determined by Evan's blue and triphenyltetrazolium chloride double staining. This protocol is illustrated in FIG. 7.

F344 rats, lung graft = assay: Airway administration of apyrase agent after rat lung graft (Example 10); assay type: in vivo; details: for PaO2: saline about 200; for neutrophil accumulation in lung graft airways: saline control 12×10^2
Method: F344 rat lung grafts were flushed and cold preserved in Apyrase agent solution (0.2 mg/L) and engrafted into syngeneic F344 recipients.
At 5 minutes post-reperfusion 1 ml apyrase agent solution (1 mg/kg) (N=6) or an equivalent volume of saline carrier was administered to the trachea at approximately 5 minutes post-reperfusion (N=7). In additional group of lung graft recipients that were treated with apyrase agent intratracheally, apyrase agent was also administered intravenously at 7 minutes post-reperfusion at 0.66 mg/kg (N=9). Lung graft oxygenation, airway cellularity and airway granulocyte numbers were measured 4 hours post-reperfusion. We noted no gross pulmonary hematomas in any treatment groups.

[8] = test system: Wistar Furth recipients of Lewis lungs; assay: Allogenic rat lung transplant model, Lewis to Wistar Furth (Example 11); assay type: in vivo; details: rats, 0.66 mg/kg/day IV for 7 days
Method: Lewis donor lungs stored for a minimal cold ischemia time of 1 hr were engrafted into allogenic Wistar Furth recipients and treated for 7 days in the following manner:
1. Saline: Received Saline 250 μl/day
2. Apyrase: Received Apyrase agent, 0.66 mg/kg/day IV
3. CyA (standard): Received Cyclosporine A 25 mg/kg/day, IP (standard dose used in previous studies)
4. CyA (low): Received Cyclosporine A 5.0 mg/kg/day, IP (sub optimal dose)
5. CyA (low)+apyrase agent: Received Cyclosporine A 5.0 mg/kg/day, IP and Received apyrase agent, 0.66 mg/kg/day IV
On post-operative day 7 recipients were evaluated for lung graft function by assessing PaO2 (FIG. 10) and then sacrificed and scored blindly for vascular rejection (FIG. 11) using the ISHLT scoring system by a pathologist who routinely evaluates lung allograft rejection. The ISHLT scoring criteria is a scale from where a score of A0 there is no evidence of vascular rejection as in completely syngeneic recipients (e.g., Lewis to Lewis lung transplantation) to A4 as is almost always observed in Lewis to Wistar Furth Recipients. Statistical differences between treatment groups (n=10) were determined by the student t test where significance differences were assessed as p<0.05. Control group for the alloimmune response was the Lewis to Lewis lung transplant combination.

rabbits = details: rabbit, in vivo
Method: Rabbits were anesthetized with intramuscular ketamine/xylazine followed by inhaled isoflurane to maintain a stable level of surgical anesthesia for 5 h. Arterial blood pressure was monitored continuously and values for pressure and heart rate recorded at intervals after administration of apyrase agent and/or other antiplatelet agents. Venous blood samples were collected at baseline (before agents were given) for analysis of CBC and chemistry and samples were obtained serially for assay of prothrombin time (PT) and activated partial prothromboplastin time (aPTT).

[9] = test system: pigs, coronary injury with stenting; details: pig, in vivo

B1: sol CD39L3 R67G T69R (protein)
chain: EVLPPGLKYGIVLDAGSSGTRVYVYQWPAEKENNTGVVSQTFKCSVKGSGISSYGNNPQDVPRAFEECMQKVKGQVPSHLHGSTPIHLGATAGMRLLRLQNETAANEVLESIQSYFKSQPFDFRGAQIISGQEEGVYGWITANYLMGNFLEKNLWHMWVHPHGVETTGALDLGGASTQISFVAGEKMDLNTSDIMQVSLYGYVYTLYTHSFQCYGRNEAEKKFLAMLLQNSPTKNHLTNPCYPRDYSISFTMGHVFDSLCTVDQRPESYNPNDVITFEGTGDPSLCKEKVASIFDFKACHDQETCSFDGVYQPKIKGPFVAFAGFYYTASALNLSGSFSLDTFNSSTWNFCSQNWSQLPLLLPKFDEVYARSYCFSANYIYHLFVNGYKFTEETWPQIHFEKEVGNSSIAWSLGYMLSLTNQIPAESPLIRLPIEPPV
modifications: glycosylated; synthetically constructed apyrase
**Q.** With B1 as the molecule, how does the “Hemorrhage #/total animals” value ([1]; apyrase agent 0.75 mg/kg (alone or plus r-tPA 10 mg/kg)) read?
**A.** The value was 0/4.

**Q.** What about the “Hemorrhage #/total animals” value ([1]; apyrase agent 2.25 mg/kg (alone or plus r-tPA 10 mg/kg)) of the same molecule?
**A.** The value was 0/4.

**Q.** What about the “hemorrhage volume in the striatum” value ([2]; 0.375 mg/kg IV at 3 h after MCAO (30 min before reperfusion), sacrifice at 8 h) of the same molecule?
**A.** Its value is 4.8±2.0 mm^3.

**Q.** What about the neurological function ([2]; 0.375 mg/kg, 4.5 hour after MCAO) of the same molecule?
**A.** Its neurological function is “significantly improved neurological function”.

**Q.** And the “half life in the circulation” value [3]?
**A.** The value was “approximately 24 h”.

**Q.** What about the “inhibition of ADP-induced platelet aggregation” value ([4]; 0.75 mg/kg IV single bolus, 10 mM ADP) of the same molecule?
**A.** The value was “more than 95%”.

**Q.** What about the “inhibition of ADP-induced platelet aggregation” value ([4]; 0.75 mg/kg IV, 6 h after dosing) of the same molecule?
**A.** Its value is 70%.

**Q.** What about the “time point after dosing at which strong effects were observed (onset of antiplatelet action)” value ([4]; apyrase agent 0.75 mg/kg IV) of the same molecule?
**A.** Its value is 5 min.

**Q.** And the “persistence of platelet inhibition” value ([5]; 0.9-2.25 mg/kg IV)?
**A.** Its value is “at least 5 h”.

**Q.** What about the “time after IV injection to >95% inhibition” value ([5]; 0.9-2.25 mg/kg IV) of the same molecule?
**A.** Its value is at most 5 min.

**Q.** What about the “inhibition of ADP-induced aggregation” value ([5]; 0.9-2.25 mg/kg single IV bolus with aspirin and heparin) of the same molecule?
**A.** Its value is over 95%.

**Q.** And the “platelet aggregation by 24 h” value ([5]; 24 h after dosing)?
**A.** Its value is “returned to normal”.

**Q.** And the average luminal stenosis [6]?
**A.** The average luminal stenosis was 19.8±2%.

**Q.** What about the “buccal mucosa bleeding time” value ([7]; dog, in vivo) of the same molecule?
**A.** The value was “no detectable change”.

**Q.** What about the reocclusion ([7]; dogs, apyrase agent at 1 mg/kg) of the same molecule?
**A.** The reocclusion was “completely prevented reocclusion”.

**Q.** What about the “decrease of infarct area compared to clopidogrel treatment” value ([7]; dogs, high dose (1 mg/kg IV)) of the same molecule?
**A.** The value was 90%.

**Q.** What about the “decrease of infarct area compared to clopidogrel treatment” value ([7]; dogs, low dose (0.25 mg/kg IV)) of the same molecule?
**A.** The value was 80%.

**Q.** What about the PaO2 (F344 rats, lung graft; IT 1 mg/kg and IV 0.66 mg/kg, 4 hours post-reperfusion) of the same molecule?
**A.** Its PaO2 is about 320 mm Hg.

**Q.** What about the “reduction of neutrophils in the airway” value (F344 rats, lung graft; airway administration, 4 hours post-reperfusion) of the same molecule?
**A.** The value was “over 50%”.

**Q.** What about the “neutrophil accumulation in lung graft airways” value (F344 rats, lung graft; airway alone) of the same molecule?
**A.** Its value is 5×10^2 neutrophils.

**Q.** What about the “neutrophil accumulation in lung graft airways” value (F344 rats, lung graft; airway and IV) of the same molecule?
**A.** The value was 3×10^2 neutrophils.

**Q.** What about the PaO2 (F344 rats, lung graft; intratracheally (IT) 1 mg/kg, 4 hours post-reperfusion) of the same molecule?
**A.** Its PaO2 is “about 300 mm Hg”.

**Q.** And the “alloimmune responses in lung allograft recipients (PaO2, ISHLT vascular rejection score)” value [8]?
**A.** Its value is “effective at suppressing alloimmune responses”.

**Q.** And the PT (rabbits)?
**A.** Its PT is “Neither PT nor aPTT were changed significantly”.

**Q.** And the aPTT (rabbits)?
**A.** The aPTT was “Neither PT nor aPTT were changed significantly”.

**Q.** And the blood pressure (rabbits)?
**A.** The blood pressure was “Neither blood pressure nor heart rate changed significantly”.

**Q.** And the heart rate (rabbits)?
**A.** Its heart rate is “Neither blood pressure nor heart rate changed significantly”.

**Q.** And the “blood loss from a standardized incision of the abdominal wall” value [9]?
**A.** The value was “not increased”.
